What all share (assay): cell-based or functional assay
The target in experiment [1] is Glycoprotein VI, GPVI^b allele protein (PEALN), on platelets of 'bb' homozygous donors (human) (UniProt Q9HCN6).
Experiment [2] concerns the target Glycoprotein VI on human platelets of donors not sorted to one allele (random donors, 'ab' heterozygotes, or donors whose genotype is not stated) (human) (UniProt Q9HCN6).
Experiment [3] addresses Glycoprotein VI, GPVI^a allele protein (SKTQH), on platelets of 'aa' homozygous donors (human) (UniProt Q9HCN6).

The results in this text go back to patent US7855050.

As for “Collagen related peptide (CRP), triple-helical peptide containing a glycine-proline-hydroxyproline repeat motif”, the figures for the platelet aggregation at a CRP concentration of 0.10 µg/ml (mean) in experiment [1] and in experiment [3] were 4.6% and 71%, respectively. The % of platelets binding annexin V at CRP 10 µg/ml in experiment [2] was 10 to 30%.
